In PMC5573810 (2017):

B1: PGT133 (antibody, V domains shown)
VH: QVHLQESGPGLVTPSETLSLTCTVSNGSVSGRFWSWIRQSPGRGLEWIGYFSDTDRSEYNPSLRSRLTLSVDRSKNQLSLRLKSVTAADSATYYCARAQQGKRIYGIVSFGEFFYYYYMDAWGKGTPVTVSS
VL: LSLAPGATAKIPCGERSRGSRAVQWYQQKPGQAPTLIIYNNQDRPAGVSERFSGNPDVAIGVTATLTISRVEVGDEADYYCHYWDSRSPISWIFGGGTQLTVL
B2: PGT124 (antibody, V domains shown)
VH: QVQLQESGPGLVRPSETLSVTCIVSGGSISNYYWTWIRQSPGKGLEWIGYISDRETTTYNPSLNSRAVISRDTSKNQLSLQLRSVTTADTAIYFCATARRGQRIYGVVSFGEFFYYYYMDVWGKGTAVTVSS
VL: SYVSPLSVALGETARISCGRQALGSRAVQWYQHKPGQAPILLIYNNQDRPSGIPERFSGTPDINFGTTATLTISGVEVGDEADYYCHMWDSRSGFSWSFGGATRLTVL

Key:
Experiment in all cases: ELISA
[1] = molecular target: gp120-ferritin (gp120-FR) nanoparticle
[2] = molecular target: N332 nanoparticle (1GUT_A_ES-FR)
[3] = molecular target: clade-C (ZM109) V1V2-ferritin nanoparticle (V1V2-FR) (HIV-1 ZM109 (clade C) | )

Row | Binder | EC50 [1] [µg/mL] | EC50 [2] [µg/mL] | EC50 [3] [µg/mL]
1 | B1 | 0.042 | 0.024 | 0.26
2 | B2 | 0.026 | 0.03 | –
